Measured values taken from the supplement of paper PMC11246515.
± gives the standard deviation of the averaged measurements.

Experiment: total protein half-life in vivo (active degradation + dilution); higher = more stable protein
[1] = E. coli NCM3722 delta-clpP delta-lon delta-hslV, growth: N-lim chemostat, doubling time 6 h
[2] = E. coli NCM3722 delta-clpP, growth: N-lim chemostat, doubling time 6 h
[3] = E. coli NCM3722 delta-hslV, growth: N-lim chemostat, doubling time 6 h
[4] = E. coli NCM3722 delta-lon, growth: N-lim chemostat, doubling time 6 h
[5] = E. coli NCM3722 delta-smpB, growth: N-lim chemostat, doubling time 6 h
[6] = wild type E. coli NCM3722, growth: C-lim chemostat, doubling time 3 h
[7] = wild type E. coli NCM3722, growth: C-lim chemostat, doubling time 6 h
[8] = wild type E. coli NCM3722, growth: C-lim chemostat, doubling time 12 h
[9] = wild type E. coli NCM3722, growth: N-lim chemostat, doubling time 6 h
[10] = wild type E. coli NCM3722, growth: N-lim chemostat, doubling time 12 h
[11] = wild type E. coli NCM3722, growth: P-lim chemostat, doubling time 6 h
[12] = wild type E. coli NCM3722, growth: P-lim chemostat, doubling time 12 h

Sequence | total protein half-life in vivo [1] [h] | total protein half-life in vivo [2] [h] | total protein half-life in vivo [3] [h] | total protein half-life in vivo [4] [h] | total protein half-life in vivo [5] [h] | total protein half-life in vivo [6] [h] | total protein half-life in vivo [7] [h] | total protein half-life in vivo [8] [h] | total protein half-life in vivo [9] [h] | total protein half-life in vivo [10] [h] | total protein half-life in vivo [11] [h] | total protein half-life in vivo [12] [h]
MLNSILVILCLIAVSAFFSMSEISLAASRKIKLKLLADEGNINAQRVLNMQENPGMFFTVVQIGLNAVAILGGIVGDAAFSPAFHSLFSRYMSAELSEQLSFILSFSLVTGMFILFADLTPKRIGMIAPEAVALRIINPMRFCLYVCTPLVWFFNGLANIIFRIFKLPMVRKDDITSDDIYAVVEAGALAGVLRKQEHELIENVFELESRTVPSSMTPRENVIWFDLHEDEQSLKNKVAEHPHSKFLVCNEDIDHIIGYVDSKDLLNRVLANQSLALNSGVQIRNTLIVPDTLTLSEALESFKTAGEDFAVIMNEYALVVGIITLNDVMTTLMGDLVGQGLEEQIVARDENSWLIDGGTPIDDVMRVLDIDEFPQSGNYETIGGFMMFMLRKIPKRTDSVKFAGYKFEVVDIDNYRIDQLLVTRIDSKATALSPKLPDAKDKEESVA [P0AE45] | 5.65 ± 0.36 | 6.93 ± 1.4 | 4.5 ± 0.44 | 4.11 ± 0.21 | 4.53 ± 0.24 | 2.97 ± 0.18 | 5.16 ± 0.21 | 8.79 ± 0.3 | 4.33 ± 0.52 | 7.63 ± 0.57 | 5.01 ± 0.053 | 9 ± 0.094
MYKTIIMPVDVFEMELSDKAVRHAEFLAQDDGVIHLLHVLPGSASLSLHRFAADVRRFEEHLQHEAQERLQTMVSHFTIDPSRIKQHVRFGSVRDEVNELAEELGADVVVIGSRNPSISTHLLGSNASSVIRHANLPVLVVR | – | – | 4.48 | 4.71 ± 0.33 | 4.18 ± 0.48 | 3.06 ± 0.038 | 6.27 | 12 ± 1.8 | 3.99 ± 0.43 | 6.48 ± 0.34 | 6.06 ± 0.33 | 10.7
MATRIEFHKHGGPEVLQAVEFTPADPAENEIQVENKAIGINFIDTYIRSGLYPPPSLPSGLGTEAAGIVSKVGSGVKHIKAGDRVVYAQSALGAYSSVHNIIADKAAILPAAISFEQAAASFLKGLTVYYLLRKTYEIKPDEQFLFHAAAGGVGLIACQWAKALGAKLIGTVGTAQKAQSALKAGAWQVINYREEDLVERLKEITGGKKVRVVYDSVGRDTWERSLDCLQRRGLMVSFGNSSGAVTGVNLGILNQKGSLYVTRPSLQGYITTREELTEASNELFSLIASGVIKVDVAEQQKYPLKDAQRAHEILESRATQGSSLLIP | 6.37 ± 0.98 | 5.12 ± 0.23 | 5.73 ± 0.15 | 5.78 ± 0.78 | 5.28 ± 0.14 | 3.13 ± 0.2 | 5.98 ± 0.24 | 9.65 ± 0.38 | 5.5 ± 0.41 | 10.2 ± 0.47 | 5.84 ± 0.14 | 12.63 ± 0.043
MNEQSQAKSPEALRAMVAGTLANFQHPTLKHNLTTLKALHHVAWMDDTLHVELVMPFVWHSAFEELKEQCSAELLRITGAKAIDWKLSHNIATLKRVKNQPGINGVKNIIAVSSGKGGVGKSSTAVNLALALAAEGAKVGILDADIYGPSIPTMLGAENQRPTSPDGTHMAPIMSHGLATNSIGYLVTDDNAMVWRGPMASKALMQMLQETLWPDLDYLVLDMPPGTGDIQLTLAQNIPVTGAVVVTTPQDIALIDAKKGIVMFEKVEVPVLGIVENMSVHICSNCGHHEPIFGTGGAEKLAEKYHTQLLGQMPLHISLREDLDKGTPTVISRPESEFTAIYRQLADRVAAQLYWQGEVIPGEISFRAV [P0AF08] | 5.1 ± 1 | 4.454 ± 0.02 | 3.96 ± 0.12 | 4.15 ± 0.34 | 3.876 ± 0.013 | 2.87 ± 0.2 | 5.22 ± 0.23 | 9.46 ± 1.4 | 3.71 ± 0.21 | 5.9098 ± 0.00063 | 5.19 ± 0.43 | 9.96 ± 0.64
